Measured values published in the nanobody polyreactivity screen of Harvey et al. (2022).

Test: yeast display, Sf9 membrane polyspecificity reagent, FACS + sequencing; frameworks hold sequencing errors
Method in brief: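 Using colony PCR, genes from sorted yeast display clones were amplified, then sequenced on MiSeq at 2 × 250 and filtered by CDR length. The clones had been stained with 10% biotinylated, detergent-solubilized Sf9 membrane reagent for 1 hour at 4 °C and sorted by FACS into low and high (top ~1%) gates on anti-HA and streptavidin fluorescence. Polyreactivity labels come from the gate of origin.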

Sequence	polyreactivity (PSR sort gate)
QVQLVESGGGLVQAGVSLLLSCAASGSTLYYNAMGWYRQAPGKERELVAAITSGGSTSYADSVKGRFTISRDNAKHTVYLQRNSLKPEDTAVYYCAAVFYRRFDYWGQGTQVTVSS	low polyreactivity
QVQLEESGGGVVQAGGSLRLSCAASGSTFLQYAMGWYRQATGKERELVAAISWRAGSTYYADSVKGRFTISRDTAQNTVYLQMNSLKPEDTAVYYCAADRNGWRYELDDYDYWGQGTQVTVSS	low polyreactivity
QVQLVESGGGLVQAGGSLRLSCAASGITFDIYNMGWYRQAPGKERELVAAISYSGGSTYYADSVKGRFTISRDNAKNTVYLQMYSLKPEDTAVYYCAAYEGTYFTEVDYWGQGTQVTVSS	low polyreactivity
QVQLVESGGGLVQAGGSLRLSCAASGSTFLLYAMGWYRPAPGKERELVATISWGGDGTYYADSVKGRFTISRDNAKNTVYLHLNSLKPEDSAVYYCAAYSYFGYYWDGQLPYRLPYDYWGQGTQVTLSS	low polyreactivity
QVQLVESVGGLVQAGGSLRLSCAASGSIFWSNAMGWYRQAPGKERELVARISTSGGRTYYADSVKGRFTISRDNAKNTVYLQMNSLKPEDTAVYYCNAGKLYYRWLYDYWGQGTQVTVSS	high polyreactivity
QVQLVESGGGLVQAGGSLRLSCASSGSTLRSYAMGWYRQAPGKERELVAAIDWDGGRTYYADSVKGRFTISRDNAKNTVYIQMNSLKPEDTAVYYCNTSAGWSNGKDEGDFYSGFDYWVQGTQVTVSS	low polyreactivity
QVQLVESGGGLVQAGGSLRLSCAASGSNFPINAMGWYRQAPGKERELVAAISWRTGSTNYADSVKGRFTISRDNAMNTVYVQMNSLKPEDTAVFYCAASYATTRQRWLDYWGQGTQVTVSS	high polyreactivity
QVQQQESGGGLVQAGGSLRLSCAASGTIFQLTVMGRYRQAPGKERELVASIDYGGNTNYADSVKGRFTISRDNAKNTVYLQMHSLKPEDTAVYYCAASSDSWTTHPYWGQGTQVTVSS	low polyreactivity
QVQLVESGGGLVQAGGSLRLSCAASGLTFWANTMGWCRQAPGKEREFVAAITWSGGSTYYADSVKGRFTISRDNAKNTVNLQMNSLKPEDTAVYYCAADEDFAAGYSYYYWGQGSQVTVSS	low polyreactivity
QVQLVESGGGLVQAGGSLRLSCAASGSTFGVNAMVWYRQAPGKERELVAGISVDDSTTYYADSVKGRFTISRDNAKNTVYLQMNSLKPEDTAVYYCAAEREKTLYYLSRFDYWGQGTQVTVSS	low polyreactivity
QVQLVESGGGLVQAGGSLRLSCAASGIIFGSNAMGWYRQAPGKERELVAAITSGGNTYYADSVKGRFTISRDNAKNTVYLQMNSLKPEDTAVYYCAARRPRRYGYWGQGTQVTVSS	high polyreactivity
QVQLVESGGGLVQAGGSLRLSCAASGSILYTNAMGWYRQAPGKERELVAAITTSGASTYYADSVKGRFTISRDNAKNTVYLQMNSLKPEDTAVYYCAAPSRYRYYWGNYWGQGTQVTVSS	high polyreactivity
QVQLVESGGGLVQAGGSLRLSCAASGGTFSFYTMVWYRQAPGKERELVAAIDSTGRTNYADSVKGRFTISRDNAKNTVYLQMNSLKPEDTAVYYCAAGPPRADYDYWGQGTQVTVSS	low polyreactivity
KVHLVESGGGLVQAGGSLRLSCAASGRIFRYYAMGWYRHAPGKERELVAAIRYLGASTYYADSVKGRFTISRDNAKNTVYLQMNSLKPEDTAVYYCNRTPRSKGNYWGQGTLVTVSS	high polyreactivity
QVQLVESGGGLVQAGGSLRLSCAASGSTFGLYAMGWYRQAPGKERELVAAITIRGGSTYYADSVKGRFTISRDNAKNTVYLQMNSLKPEDTAVYYCAADYWYGGFEYWGQGTQVTVSS	low polyreactivity
QVQLVESGGGLVQAGGSLRLSCAASGSTFCGYAMGWSRQAPGKEREFVATISISGGSTYYADSVKGRFTISRDNAKNTVYLQMNSLKPEDTAVYYCNADYYFSWGSIEDYWGQGTQVTVSS	low polyreactivity
QVQLVESGGGLVQAGGSLRLSCAASGSIFYTNAMGWYRQAPGKERELVAAIRWSGGRTYYADSVKGRFTISRDNAKNTVYLQMNSLKPEDTAVYYCNVVVRYPSAYDYWGQGTQVTVSS	high polyreactivity
QVQLVESGGGLVQAGGSLRLSCAASGIIFYRNTMGWYRQAPGKERELVASISRGGSTNYADSVKGRFTISRDNAKNTVYLQMNSLKPEDTAVYYCAAYTYIPLSYYRGYTMDYWGQGTQVTVSS	low polyreactivity
QVQLVESGGGLVQAGGSLRLSCAASGSIFSYNLMGWYRQAPGKERELVAAITRSCGSTYYADSVKGRFTISRDNAKNTVYLQMNSLKQEDTAVYYCAVGWADQDPFIMDFWGQGTQVTVSS	low polyreactivity
QVQLVESGGGLVQAGGSLRLSCAASGRIFDFNAMGWYRQAPGKEREVVAAISSGGRTKYADSVKGRFTISRDNAKNTVYLQMNSLKPEDTAVYYCAASGSQPDDYWGQGTQVTVSS	high polyreactivity
QVQLVESGGGLVQAGGSLRLSCAASGSIFQSYTMGGYRQAPGKERELVAAINSGGRTNYADSVKGRFTITRDNAKYTVYLQMNSLKPEDTAVYYCAKRLSTRASFGEEDSWGQGTQVTVSS	low polyreactivity
QVQLVESGGGLVQAGGSLRLSCAASGFTFHNYAMGWYRQAPGKERDFVAAITRNTASTYYADSVKGRFTISRDNAKNTVYLQMNSLKPEDTAVYYCNASRVVYRQAYLYGYDYWGQGTQVTVSS	low polyreactivity

Sequence	polyreactivity (PSR sort gate)
QVQLVESGGGLVQAGGSLRLSCAASGRIFDINAMGWYIQAPGKERELVAAINYNGSSTYYADSVKGRFTISRDNAKNTVYLQKNSLKPEDTAVYYCATVQVDVYTYDYWGQGTKVTVSS	high polyreactivity
QVQLVESGGGLVQAGGSLRLSCAASGGTFVGYAMGWSRQAPGKERELVASITRRGGNTYYADSVKVRFTISRDNATNTFYLQMNSLNPEDTAVYYCANALVVQYGRYTGHPYDYWGQGTQVTVSS	high polyreactivity
QVQLVESGGGLVQAGGSLRLSCAASGFIFTYYAMGWYRQAPGKERELVAAISSRGGSTFYADSVKGRFTISRDNAKNTVYLQMNSLKPEDTAVYYCAADKWYAANQGYYYWGQGTQVTVSS	low polyreactivity
QVQLVESGGGLVQAGGSLRLSCAASGFTLGSNAMGWYRQAPGKERELVAAISWDGGRTYYADSVKGRFTISRDNAKNTVYLQMNSLKPEDTAVYYCNRASYLRGTAGGDYWGQGTQVTVSS	high polyreactivity
QDQLVESGGGLVQAGGSLRLSCAASGSTFYWYTMGWYRQAPGKESEMVATITSVGRTNYADSVKGRFTISRDNAKNTVYLQMNSLKPEDTAVYYCAASKARWARGGSKYYYWGQGTQVTVSS	high polyreactivity
QVQLVESGGGLVQAGGSLRLSCAASGRIFLWYAMGWYRQAPGKERELVAAISSNGGSTRYADSVKGRFTFSRDNAKNTVYLQMNSLKPEDTAVYYCNADVHWNRYPYGGNGYGYWGQGTQVTVSS	low polyreactivity
QVQLVESGGGLVQAGGSLRLSCAASGRIFKSYAMGGYRHAPGKERELVAAISSGDDTYYADSVKGRFTISRDNAKNTVYLQMNSLKQEDTAVYYCAADYWGWIYLYGDYLVDYWGQGTQVTVSS	low polyreactivity
QVQLVESGGGLVQAGGSLRLSCAASGRISRSNTMGWYRQAPGKERELVAAISRGGGSTYYADSVKGRFTISRDNAKNTVYLQMKSLKPEDTAVYYCAKRSAITGYEYWGQGTQVTVSS	high polyreactivity
QVQLVESGGGLVQAGGSLRLSCAASGRILVSYARGWYRQAPGKERELVAGITSGGDSTYYADSVKGRFTISRDNAKNTVYLQMNSLKPADTAVYSCAADRYGYRGRKNVRERYNYWGQGTQVTVSS	high polyreactivity
QVQLVESGGVLVQAGGSLRLSCAASGSIFGLYAMGWYRQAPGKERELVAAISRRSVSTYYADSVKGRFTISRDNAKNTVYLQMNSLKPEDTAVYYCAAVTYPYLRSQKGYDGYGYWGHGTQVTVSS	high polyreactivity
QVQLVESGGGLVQAGGSLRLSCAASGFIFYRNPMGWYRQAPGKEREFVAAIRGRGGATYYADSVKGRFTISRDNAKITVYLQMNSLKREDTAVYYCAADTRPGYSGFEYWGQGTQVTVSS	high polyreactivity
QLQLVESGGGLVQAGGSLRITCAASGSTFYCYSMACYRQAPGKERALVARISSSSGRTYYADSVKGRFTISRDNAKNTVYLQMNLLKPEDTAVYYCAKYVYGKFDGVRYSYDYWGQGTQVTVSS	low polyreactivity
QVQLVESGGGLVQAGGSLRLSCAASGFTFSRNVMGWYRQAPGKERELVADITLSGASTYYADSVKGRFTISRDNAKNTVYLQMNSLKPEDTAVYYCAADPYHWRCGWRHDYWGQGTQVTVSS	low polyreactivity
QVQLVESGGGLVQAGGSLRLSCAASGIIFNYYTMGWYRQAPGKERELVAVITSRGSSPYYADSVKGRFTISRDNAKNTVNLQMNSLKPDDTAVYYCAKVRPYLDTNEYYYWGQGTQVTVSS	high polyreactivity
QVQLVESGGGLVQAGGSLRLSCGASGSIIGSYALGWYRQAPGPERELVAAISSSGGRTYYAVSVKGRFTISRDKAKNTVYLQMNRLKPAETAVYYCNTRPGTVFRAGGDDWGQGTQVTVSS	high polyreactivity
QVQLVESGGGLVQAGGSLRLSCAASGIIFYGYAMGWYRQAPGKERELVAAITYSGGSTYYADSVKGRFTISRDNAKNTVYLQMNSLKPEDTEVYYCAAYDAYSPYQALYDYWGQGTQVTVSS	low polyreactivity
QVQLVESGGGLVQAGGSLRLSCAASGTFAGNAMGWYRQAPGKERELVAAINSGGSTNYADSVKGRFTISRDNAKNTVYLQMKSLKPEDTAVYYCAADSVWSPVDYDYWGQGTQVTVSS	low polyreactivity
QVQLVESGGGLVQAGGSLRLSCAASGGIFAPYAMGWYRQAPGKERELVADITSDGGSTYYADSVKGRFTISRDNAKNTVYLQMNSLKPEDTAVYYCAAEQRYCWWGHPGDYWGQGTQVTVSS	low polyreactivity
QVQLVDSGGGLVQAGGSLRLSCADSGSIFPANVMGWYRQAPGKERELVAAISRGGSTYYADSVKGRFTISRDNAKNTVYLQMNSLKPEDTAVYYCAVAFRGSYRPAYYYWGQGTQVTVSS	high polyreactivity
QVQLVESCGGLVHAGGSLRLSCAATGFTIAENVKGWYRQSPGKERELVAAIDYSDGITYYADSVKGRFTISRDNAKNTVYLQMNSLKPEDTAVYYCATQYLIQTKDYSWGQGTQVTVSS	high polyreactivity
QVQLVESGGGLVQAGGSLRLSCAASGRTFGPNVMGWYRQAPGKERELVAAITYSSASTYYADSVKGRFTISRDNAKNTVYLQMNSLKPEDTAVYYCAARDRYYFGGMYYWGQGTQVTVSS	low polyreactivity
